Data reported in the domain aggregation screens of Martell et al. (2025).

Test: soluble fraction after stress (log2 fold change); higher = more stays soluble; pooled small domains, quantitative proteomics
Details: stress: 75 degC
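Note: 20 min heating vs room temperature control held 20 min.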

Point of comparison: “HMTGDIIKQERKKKNLTQIELAKKVGISRNALINYEAGTRIPPISVQLKLADVLGIDILDLK”, “soluble fraction (log2)” value -1.64. Against it:
- HMTDLALHIGKTLRELRQRRGWSLDKTAQATGVSKAMLGQIERGESSPTVVTLWRISSGLQASFSEFLPP — lower, -3.69
- HMTDLDVAVTMTVALEEAVNGATRRVRLPNGKELNVKIPAGVAAGQQIRLKGQGETAPGHRPGDVLITVNI — higher, -0.712
- HMTDLQNDIQAFNLKKMSYQHETKKLEEKRNPEKLEKLEQDIQALYLRIMENPNMRAFDSAKQALYLQIM — higher, -0.948
- HMTDLVVGLAGITLEPLRPAGKAEFNGSVVDVVSLGDYIEKSTAIQIVEIEGNRIVVHHGED — higher, -0.865
- HMTDQYEVQNLVGLTVREAQEKEGVKDIFEVREVGSEFSAEYDAGLIVRQSPDAGEQRKGEGLVIEVWVSA — higher, 0.106
- HMTDSLELADLLRRAIITGEYKPRERLVEMELAQKYSVSRTPVREALKHLEALGLVKMERYKGAMVAD — higher, -0.911
- HMTDSQLVEAENHVALRQAMAHLGPRERELIGLYYFEEQSQTQIAARFGVSQMQVSRWLTSAVGRIRGQMA — higher, 0.209
- HMTDWNTVEKETLSAIQKVLSGQASWIDLSPADHSIRHMQHEMVQQAGLISQSYGKEPMRRIRIYQNP — higher, -0.039
- HMTEDADIERRLTGILASAGWYRSLAVEVKEGIVYLDGATASGNHRDWAGSLAAKTEGVVAVVNRIEVQP — lower, -1.86
- HMTEDIAVRILEFLEDNNGFYALNDKTPSEKIHDLFGVSKKKFKIALGGLYKQRLITVSDAGVTLVK — within 0.2 log units, -1.67
- HMTEDTPIIVERVVADIDENVVAIVRKFKDAFKSITAQREIKKKLRSILWVNYQIKDQEVFDKAYQYIEMY — higher, 0.241
- HMTEEDVVIFSGLSDRDLKMVQTELANSGIKYTLPTSGTVSVPNSEIARAQMVLAMAGIPRS — higher, 0.246
- HMTEEVIIQNYIGKNFNDVRDELEAKGITVDEPNMKYSDEFKENTIMAQSIKPGQPLKPGGFNSIKFDVS — higher, -0.0167
- HMTEFFNMQDMFYFKLTGDVTSKERRQSLGKILGIGYGNAAQMVSRLNNYGITKEEFTNAINEIEKQMEAG — higher, -0.715
- HMTEISGIEKFLASGAINGIGPAMAKKIVAEFGEKTLEIIAKSPNELLKVPGIGKKTAEKISTSYLEQ — higher, -0.04
- HMTEKEEERTEDLNYYRLNLISMLKSSYPEYLDDEEFISNRSQEAAEAFEDAVRSGSNYLDASAESNRTLY — higher, -0.229
- HMTEKIRLTVDEAGKNQRVDKYISTLLTQFSRSSIKTWIETGNILLDNTRTKPRTLLSPGQVIDIQPRFED — higher, -1.09
- HMTEKIVFNIDGQTGRIDKILADFMTGTSRSQIQAWVKDGNLMVNDKAVKSNYKVQDGDLLELTIPEPEQ — higher, -0.284
- HMTELIEDYVELIGDLIRHRGEARAADIANRMAVSQATVSKMIRRLNELGLVTSKPYRSLFLTDEGQKMAE — higher, -0.363
- HMTELLTPKQRQVFELALREGYYDVPRRTSITEMARLLGVAKSTLSAQMHRMEATVMSTFAEEIRKQ — lower, -2.01
- HMTENIPPVKIEEMRQKWQDIVLLHGVTSGRKIKSGQATYIWLYRNDQNWLLTFNSRHLSQPQV — higher, 0.232
- HMTEPKILTAEESQRLDLILVQQWPELGRRALRELVQQGGVRINGELALKAGQYVQAGERVEVAVP — higher, 0.232
- HMTEQKNNEQQNAVNEKKQALKQLMEKGKEKGSLSYNEVNALLDKLEFTEDQKAIVYDQLHSEDIELQ — higher, 0.3
- HMTEQLTLVGKTGVTTTDLRPSGKVEVDGKRYDAVADNGAFISKGAHIKVVRYVTGQVYVVPTD — higher, -0.0624
- HMTERIRLHDDIGSWVEKHGATRSALIPVLQGIQRSYNEISEYAMQEVADRLDIHPVEVYSVVSFYSF — higher, 0.307
- HMTESFEFTMNDLVQNNLIMGSGAKERRIAVGEALGIGYTNAKQFLSRLNHYGITRKEFDDEIEKVNQN — higher, -0.311
- HMTETEIVIGGKYRHYKGGEYELVSIVKHSETLEELVIYKSLSTGEMWARPKSLFVGLVDGQPRYTL — lower, -2.22
- HMTETIPVSERLFRYLFEEKGKRVQKIQQTSHARVRMERSPYSVVVSGTKDAVEAAMESLKATEKELLEA — higher, -0.161
- HMTETPDDLLAALKKNKKAQATFDAFSPSNKKEYILWITEAKTEATRTKRLETAIEWMSEGKARNW — higher, -0.579
- HMTETTTVPKLKGLTKDEAEDAAKSSKIKLEFIDEISKTVEAGVIIKQEKDEGETVNAGDTVKVYVSIGT — higher, 0.472
- HMTEWSIHEVAQRSGVTTRTLRHYDAIGILSPTRTGANGYRYYGPEALVRLQRILLLRDLGLALSDIAE — lower, -3.82
- HMTEYFTIESQEGERIDRYLSEELEDKSRSYIQKLIRDGHVLVDGKTVKAGYRLVAGDNIAITLPEI — higher, -0.132
- HMTFAPTAIPSLTRPMEELMSWSFTPNEAFILSRINGLWDVRSIAKISPFPEGEVLRVFEKLHDGGLIRW — lower, -3.6
- HMTFNEPSPKEIMDYSLSRGYKVDADAFIDFYRGKAKAYGKEGLWLDGRGRLVKDWRAKLRVVWFKDENKL — higher, -1.36
- HMTGDIGAEAAKAAALAHAGVTESQTAKMKVDRDWDDGRLEYDVEFDVGRTEYEYTIDGVTGAVLEYEQDI — higher, 0.0252
- HMTGDISRALDQLPADMRTVLILYALEKQRYEDIAQITGVSVGTVKSRLNRARQKLAAILANQREQNE — within 0.2 log units, -1.49
- HMTGDNQTIGGGGFHHVAIRAHDFDASVKFYGETLGFREKIAWGEGDKRAIMMDTGDGNYIEIF — higher, 0.0318
- HMTGEDIKKVILREYAREKSLLSIFHELSKVNSNVTLEVIKDIITNIDKLPNDLLQYFKEESSFYQKNKN — within 0.2 log units, -1.46
- HMTGGIWVQIQGAVERPGVYSLPRDSRLKDLLEAAGGFGRDADTEKVNQAARLEDGAMYRVPRQGEG — higher, 0.49
- HMTGGLLVHVAGAVGAPGVVSLPEGARVVDAIEAAGGAREDADTDQLNLARPVVDGEQVRVPVVGEVLE — higher, -0.00946
- HMTGINMSYEEYKAMADIIVPLIKAGHSPYHIVTNHPELNISEKTLYNYIENGIFREFGLLDINL — within 0.2 log units, -1.59
- HMTGIRVYPNPTSSELRFSVATDAALYDATGARLRVVRGSDMMDIRDLASGTYYVRFADGSTQSVVVT — higher, -0.755
- HMTGKLGKIILQPKQTVYGITKKYQISESELRRLNPQLDSHLKIGDEVILPAENIKKFGGNQPVAVS — higher, 0.268
- HMTGKTTLEYLNPLLERGIPVWDYLAKASGKAKEEVQEMVSKGLVPGAEAAKAIADYMGAEFAGSMA — higher, -0.0343
- HMTGKVKWYDADKGFGFVTEDGGRDVYVRKSALPQGVETLKAGQRLEFGIAEGRRGPQALSVR — higher, -0.0771
- HMTGLFSPTEQTRHSKTGATLYSVKLAERIERNAFQSLKKRAKEHDGYYSSFTRSFLFDTPEDAEAFRGT — higher, -0.371
- HMTGMEASLSKLLQGEQFADLRKALIDKGIRKLEAFKRLNLWVFMNRNRLYSIGQRQTVYSTLQRALASE — higher, -0.0934
- HMTGREIDQLFSVVNDLKAKGVGMVFISHHLDEIARIADSVSVLRDGGFVAEVPASTPEKKLVTLMVGRDI — higher, -0.228
- HMTGWINVDKNWYYMNNSGSMARGMINVNNVSYYLDENGKMLSNTTVNVNGTDYRIDASGAMSQI — higher, -0.182
- HMTHEIKIKSHSLFASEGTKYQWYLNNIKINDATSQELEITSPGIYKLEMTNFDGDVIEKQIIVGLTNS — lower, -1.91
- HMTHHGHSIKRIRDMLGIKQETLAAELNMTQQAFSKLEQKEQIEDEMLDKIAKILHVSTEALKT — higher, 0.0102
- HMTHPAHLARIGALIRSARQHEGLTQAQLAELLGTSQSAIHRIEQGGQNITLDMLTRISAALDSEIVTIG — within 0.2 log units, -1.51
- HMTHPQVEAYLDDLARMLADIDPGERDDILASVREHLDAEIAAGHGSDAVVNATLLRLGPPEQVAAAARTN — higher, -0.0131
- HMTIAFPSNDVDAVVGYFESRGFDRTASISTATVILQQAKIDGVKVFELIDTLQGMDKVQLSYIVTEILN — higher, 0.0608
- HMTIATLGERIRKLRKERGLTLAELAGDKLSKGMLSLIENNRAKPSMESLEYIAKRLGVEPAELLE — higher, 0.0696
- HMTIENTDTFLETLWEQVQRASVDENGIITSRVLIWDEGTKLDEILSWFDKRHSLGALYLQFG — lower, -2.66
- HMTIFGWQTDETGKWYRNADGTFFEAGWKEIDGAKYYFDENGYVKTGWLELDGKDYYFDEEGRYDSSKVR — higher, 0.299
- HMTIGLLISKARTNSGLTQAELATRAGTSQAAIARYESDRVSPSVSTLERVLRAAGEELVISSS — higher, -0.209
- HMTINPFSTLAVRELEILHYLLNGHRTKEIATNLGLKMNTVSTIKSNIFEKVKADSFTHLLQLAHVHQIS — higher, -1.07
- HMTIQNSILDEIPNIGASRKRAILEAFGSVHRLRKASPEMISAKVEGIGPEMAQAIHDYLVKHPAT — higher, 0.066
- HMTISAQAITPRLEVIKNFVLMEEWDAAQTQLEKLRSFTEIWSLDPLFSAMKKKDGQKISDWITGFIKDNM — lower, -2.39
- HMTISDEAMQAGRDAFIQALVAMGAEKNADAMASIEKALSADPGNKEYLATRDLIKKSMGMKK — higher, 0.981
- HMTISGSDLKAQREALNIPLERIAKETRIRLSILQDLEDEEYSELSSSAQTKGFLRLYADYLSSHKQRLG — higher, -1.06
- HMTITDDETHKVLEEGASRMSEGLTFRDLVDLDRLHLTARGVIQKVLNENRIDADVDTIANMAQKLVARVS — higher, -0.0881
- HMTKAEVLLDLQQRIISEEFLPGSWLVERDLSSEYGLSRTPIREILNKLVILGLISVQKNRGYQVR — higher, -1.29
- HMTKAILTANDVRNGDIVFWTADQRWSTSIDDAAIGYGKDDTDQLADAGKQAEAANTVVGAYLIALR — higher, -0.102
- HMTKASEELYFRLKEELGTGVIVEHKKYGEGVVTQLDDRLVHIMFQDDTLRMMDLKILANAGLLKVK — within 0.2 log units, -1.57
- HMTKDYVVIYEGLAQTEAVEILGKLQEMGVSAKVDHNDSILVLKDEEDQIRMALATEGYPKS — higher, 0.158
- HMTKEEKEKREKYEKLMKKADELVTAKNHKEAVTVLGQAKAYANPQQTKEIEEKIKAQTAELDKG — higher, 0.548
- HMTKGVQMFAEQLKRTRQSRHYSQAEIASKLGVTQQAIAKWETGVSTPSPTSISKLSDILGISTDVLLKGA — higher, 0.0396
- HMTKIAFPQMLNKYRLQKNLTMEQLAEEVGKTKSTISKWEAGTRSPKIYEIEEIAKYFGVEPQTMMF — higher, -0.107
- HMTKINAPMPGNILDVKVNVGDHVEANQLVLMLEAMKMENEIFTPVAGTVVGVHVKKGDSVNSDDLLISI — higher, -0.512
- HMTKKEFLDILTESLAGNVPASEIEENIRYYKDYIENGEESEEKALEQLGDPHLIARTIIDSFIA — higher, -0.0899
- HMTKLLSALQADKFAKKLANDTNFGSNFARMGESAMDFTNRLVEELQRDEGKVANYMPYLTKLGF — higher, 0.204
- HMTKLSPKEKSILHIIGDNAGIKSGQIAKRLDIPSPTVKRILSDLVSQNLIEKFGTGPGTNYSI — higher, -0.0131
